Measured values taken from PMC6797804, “Histone H3K23-specific acetylation by MORF is coupled to H3K14 acylation” (Nature Communications, 2019).

Test system: promoters of target genes in 293T cells
Assay: ChIP in transfected 293T cells (FLAG-MORFN WT or F287A)
Assay type: cell-based
Experimental: Chromatin preparation from MEF, U2OS (ATCC HTB-96) and 293T cells were done as previously described. […] Next, 50 μl of Protein G Dynabeads for FLAG ChIP or 25 μl of Protein A Dynabeads was added to each sample and incubated for 4 h at 4 °C. The beads were washed extensively and eluted with 1% SDS and 0.1 M NaHCO3. Cross-linked samples were reversed by heating overnight at 65 °C in the presence of 0.2 M NaCl. Samples were then treated with RNase A and proteinase K for 2 h, and DNA was recovered by phenol-chloroform and ethanol precipitation. Quantitative real-time PCR corrected for primer efficiencies in the linear range were performed using SYBR Green I (Roche) on a LightCycler 480 (Roche).

[1] = corrected for total H3, two independent experiments

B1: FLAG-MORF F287A: FLAG-tagged MORFN F287A mutant defective in histone H3 binding, expressed in 293T cells (protein, UniProt Q8WYB5 1-716, looked up, variant F287A)
chain: MVKLANPLYTEWILEAIQKIKKQKQRPSEERICHAVSTSHGLDKKTVSEQLELSVQDGSVLKVTNKGLASYKDPDNPGRFSSVKPGTFPKSAKGSRGSCNDLRNVDWNKLLRRAIEGLEEPNGSSLKNIEKYLRSQSDLTSTTNNPAFQQRLRLGAKRAVNNGRLLKDGPQYRVNYGSLDGKGAPQYPSAFPSSLPPVSLLPHEKDQPRADPIPICSFCLGTKESNREKKPEELLSCADCGSSGHPSCLKFCPELTTNVKALRWQCIECKTCSACRVQGRNADNMLACDSCDRGFHMECCDPPLSRMPKGMWICQVCRPKKKGRKLLHEKAAQIKRRYAKPIGRPKNKLKQRLLSVTSDEGSMNAFTGRGSPGRGQKTKVCTTPSSGHAASGKDSSSRLAVTDPTRPGATTKITTTSTYISASTLKVNKKTKGLIDGLTKFFTPSPDGRRSRGEIIDFSKHYRPRKKVSQKQSCTSHVLATGTTQKLKPPPSSLPPPTPISGQSPSSQKSSTATSSPSPQSSSSQCSVPSLSSLTTNSQLKALFDGLSHIYTTQGQSRKKGHPSYAPPKRMRRKTELSSTAKSKAHFFGKRDIRSRFISHSSSSSWGMARGSIFKAIAHFKRTTFLKKHRMLGRLKYKVTPQMGTPSPGKGSLTDGRIKPDQDDDTEIKINIKQESADVNVIGNKDVVTEEDLDVFKQAQELSWEKIECESGVEDC
modifications: residues 1-716 FLAG tag
association with promoters (FLAG ChIP) (compared to WT FLAG-MORF, two independent experiments): decreased association
H3K14ac level on promoters (ChIP) [1]: H3K14ac level was unaffected by the mutation
H3K23ac level on promoters (ChIP) [1]: expression of WT FLAG-MORF but not F287A mutant increases H3K23ac level

B2: WT FLAG-MORF: FLAG-tagged wild-type MORFN (residues 1–716 of MORF) expressed in 293T cells (protein, UniProt Q8WYB5 1-716, looked up, fragment)
chain: MVKLANPLYTEWILEAIQKIKKQKQRPSEERICHAVSTSHGLDKKTVSEQLELSVQDGSVLKVTNKGLASYKDPDNPGRFSSVKPGTFPKSAKGSRGSCNDLRNVDWNKLLRRAIEGLEEPNGSSLKNIEKYLRSQSDLTSTTNNPAFQQRLRLGAKRAVNNGRLLKDGPQYRVNYGSLDGKGAPQYPSAFPSSLPPVSLLPHEKDQPRADPIPICSFCLGTKESNREKKPEELLSCADCGSSGHPSCLKFCPELTTNVKALRWQCIECKTCSACRVQGRNADNMLFCDSCDRGFHMECCDPPLSRMPKGMWICQVCRPKKKGRKLLHEKAAQIKRRYAKPIGRPKNKLKQRLLSVTSDEGSMNAFTGRGSPGRGQKTKVCTTPSSGHAASGKDSSSRLAVTDPTRPGATTKITTTSTYISASTLKVNKKTKGLIDGLTKFFTPSPDGRRSRGEIIDFSKHYRPRKKVSQKQSCTSHVLATGTTQKLKPPPSSLPPPTPISGQSPSSQKSSTATSSPSPQSSSSQCSVPSLSSLTTNSQLKALFDGLSHIYTTQGQSRKKGHPSYAPPKRMRRKTELSSTAKSKAHFFGKRDIRSRFISHSSSSSWGMARGSIFKAIAHFKRTTFLKKHRMLGRLKYKVTPQMGTPSPGKGSLTDGRIKPDQDDDTEIKINIKQESADVNVIGNKDVVTEEDLDVFKQAQELSWEKIECESGVEDC
modifications: FLAG tag
notes: FLAG-tagged wild-type MORFN (residues 1–716 of MORF) expressed in 293T cells
H3K23ac level on promoters (ChIP) [1]: increases H3K23ac level on these promoters
